Data taken from the RNAGym collection of RNA variant scans (doi:10.1021/acssynbio.7b00057).

B1: Pistol ribozyme (parent)
chain: GGGUCGUUGUUCCAUAAUCGCGUGGAUAUGGCACGCAAGUUUCUACCGGGCACCGUAAAUGUCCGACUGGAGCCGUUCGGGCGGCUAUAAACAGACCUCAGGCCCGAAGCGUGGCGGCACCUGCCGCCGGUGGUAAAAAAGAUCGGAAGAGCACACGUCU

Variants of: B1
Experiment: aptazyme ON/OFF ratio, guanine; higher = stronger switching; co-transcriptional cleavage with and without guanine

Variant	aptazyme ON/OFF ratio
U7G U8C G9C U10A U11G C12U C13U	1.17
U7G U8C G9C U10A U11G C12U C13A	1.22
U7G U8C G9C U10A U11G C12A	1.08
U7G U8C G9C U10A U11G C12G	1.17
U7G U8C G9C U10A U11G C12U	1.26
U7G U8C G9A U11G C12A C13U	1.12
U7G U8C G9A U11G C12A C13A	1.1
U7G U8C G9A U11G C12A C13G	1.1
U7G U8C G9C U10C U11C C12U C13U	1.03
U7G U8C G9C U10C U11C C12U C13G	1.21
U7G U8C G9C U10C U11C C12U C13A	1.05
U7G U8C G9C U10A U11G C13G	1.15
U7G U8C G9C U10A U11G C13A	1.14
U7G U8C G9C U10A U11G C13U	1.18
U7G U8C G9A U11A	2.48
U7G U8C G9A U11G	1.3
U7G U8C G9A U11C	1.4
U7G U8C G9C U10A U11C C13A	1.41
U7G U8C G9C U10A U11C C13G	1.26
U7G U8C G9C U10A U11C C13U	1.25
U7G U8C G9C U10A U11C	1.18
U7G U8C G9C U10A U11A	3.4
U7G U8C G9C U10A U11G	1.51
U7G U8C G9A U10G U11G C12G C13U	1.14

Variant	aptazyme ON/OFF ratio
U7G U8C G9A U10G U11G C12G C13G	1.2
U7G U8C G9A U10G U11G C12G C13A	1.13
U7G U8C G9C U10G C12U	1.14
U7G U8C G9C U10G C12G	1.12
U7G U8C G9C U10G C12A	1.13
U7G U8C G9C U10A U11C C12A C13G	1.19
U7G U8C G9C U10A U11C C12A C13A	1.28
U7G U8C G9C U10A U11C C12A C13U	1.27
U7G U8C G9C U10A U11A C12U C13G	1.09
U7G U8C G9C U10A U11A C12U C13U	1.08
U7G U8C G9C U10A U11A C12U C13A	1.07
U7G U8C G9C C12U C13A	1.1
U7G U8C G9C C12U C13U	1.21
U7G U8C G9C C12U C13G	1.12
U7G U8C G9C U10A C12U C13A	1.03
U7G U8C G9C U10A C12U C13U	1.04
U7G U8C G9C U10A C12U C13G	1.01
U7G U8C G9C U11C C12G C13U	1.11
U7G U8C G9C U11C C12G C13A	1.2
U7G U8C G9C U11C C12G C13G	1.07
U7G U8C G9A U11G C12U C13A	1.11
U7G U8C G9A U11G C12U C13U	1.18
U7G U8C G9A U11G C12U C13G	1.07
U7G U8C G9C U11A C12G	1.2

Variant	aptazyme ON/OFF ratio
U7G U8C G9C U11A C12A	1.19
U7G U8C G9C U11A C12U	1.23
U7G U8C G9C U10C	1.92
U7G U8C G9C U10G	1.17
U7G U8C G9C U10A	2.18
U7G U8C G9C U10G U11G C12A C13G	1.13
U7G U8C G9C U10G U11G C12A C13U	1.1
U7G U8C G9C U10G U11G C12A C13A	1.11
U7G U8C G9C U11A C13U	1.18
U7G U8C G9C U11A C13G	1.06
U7G U8C G9C U11A C13A	1.09
U7G U8C G9C U11G C12G C13A	1.12
U7G U8C G9C U11G C12G C13U	1.1
U7G U8C G9C U11G C12G C13G	1.12
U7G U8C G9C U10C U11G C12G C13U	1.05
U7G U8C G9C U10C U11G C12G C13A	1.1
U7G U8C G9C U10C U11G C12G C13G	1.09
U7G U8C G9C U10G U11C C12G C13A	1.29
U7G U8C G9C U10G U11C C12G C13G	1.15
U7G U8C G9C U10G U11C C12G C13U	1.19
U7G U8C G9C U10A C12G C13G	1.05
U7G U8C G9C U10A C12G C13A	1.06
U7G U8C G9C U10A C12G C13U	1.09
U7G U8C G9C C12G C13A	1.13

Variant	aptazyme ON/OFF ratio
U7G U8C G9C C12G C13G	1.12
U7G U8C G9C C12G C13U	1.09
U7G U8C G9C U10A C12A	1.09
U7G U8C G9C U10A C12G	1.25
U7G U8C G9C U10A C12U	1.06
U7G U8C G9C U11C C12U C13A	1.22
U7G U8C G9C U11C C12U C13U	1.34
U7G U8C G9C U11C C12U C13G	1.1
U7G U8C G9C U10G U11C C12A	1.36
U7G U8C G9C U10G U11C C12U	1.12
U7G U8C G9C U10G U11C C12G	1.21
U7G U8C G9A U11C C12G C13A	1.05
U7G U8C G9A U11C C12G C13U	1.16
U7G U8C G9A U11C C12G C13G	1.05
U7G U8C G9A U11A C13U	1.21
U7G U8C G9A U11A C13G	1.03
U7G U8C G9A U11A C13A	1.14
U7G U8C G9U C12A C13U	1.2
U7G U8C G9U C12A C13A	1.34
U7G U8C G9U C12A C13G	1.26
U7G U8C G9C U11A C12U C13G	1.13
U7G U8C G9C U11A C12U C13A	1.09
U7G U8C G9C U11A C12U C13U	1.22
U7G U8C G9C U10G U11A C13A	1.05

Variant	aptazyme ON/OFF ratio
U7G U8C G9C U10G U11A C13G	1.19
U7G U8C G9C U10G U11A C13U	1.05
U7G U8C G9A U10G U11G C12U C13A	1.28
U7G U8C G9A U10G U11G C12U C13U	1.52
U7G U8C G9A U10G U11G C12U C13G	1.22
U7G U8C G9C C13A	1.11
U7G U8C G9C C13G	1.05
U7G U8C G9C C13U	1.15
U7G U8C G9C U10A C12A C13A	1.08
U7G U8C G9C U10A C12A C13G	1.08
U7G U8C G9C U10A C12A C13U	1.05
U7G U8C G9A U11G C12G	1.14
U7G U8C G9A U11G C12U	1.3
U7G U8C G9A U11G C12A	1.1
U7G U8C G9C U10C U11A C12A C13U	1.04
U7G U8C G9C U10C U11A C12A C13G	1.09
U7G U8C G9C U10C U11A C12A C13A	1.04
U7G U8C G9C U10G U11A C12G	1.17
U7G U8C G9C U10G U11A C12A	1.28
U7G U8C G9C U10G U11A C12U	1.04
U7G U8C G9A U11A C12U	1.36
U7G U8C G9A U11A C12G	1.1
U7G U8C G9A U11A C12A	1.2
U7G U8C G9C U10A U11A C13G	1.1

Variant	aptazyme ON/OFF ratio
U7G U8C G9C U10A U11A C13A	1.09
U7G U8C G9C U10A U11A C13U	1.23
U7G U8C G9C U10C U11G C12U	1.1
U7G U8C G9C U10C U11G C12G	1.06
U7G U8C G9C U10C U11G C12A	1.14
U7G U8C G9C U11C C13U	1.38
U7G U8C G9C U11C C13A	1.46
U7G U8C G9C U11C C13G	1.05
U7G U8C G9A U10G U11G C12A C13A	1.13
U7G U8C G9A U10G U11G C12A C13G	1.1
U7G U8C G9A U10G U11G C12A C13U	1.3
U7G U8C G9A U10G U11C C12U C13G	1.16
U7G U8C G9A U10G U11C C12U C13U	1.12
U7G U8C G9C U10C C12G C13U	1.08
U7G U8C G9C U10C C12G C13G	1.11
U7G U8C G9C U10C C12G C13A	1.14
U7G U8C G9A U11C C13G	1.06
U7G U8C G9A U11C C13U	1.21
U7G U8C G9A U11C C13A	1.34
U7G U8C G9C C12A C13U	1.16
U7G U8C G9C C12A C13A	1.15
U7G U8C G9C C12A C13G	1.15
U7G U8C G9C U10G U11A C12U C13A	1.03
U7G U8C G9C U10G U11A C12U C13U	1.03

Variant	aptazyme ON/OFF ratio
U7G U8C G9C U10G U11A C12U C13G	1.04
U7G U8C G9C U10C U11A C13A	1.04
U7G U8C G9C U10C U11A C13U	1.03
U7G U8C G9C U10C U11A C13G	1.11
U7G U8C G9C U10G C12G C13A	1.09
U7G U8C G9C U10G C12G C13U	1.1
U7G U8C G9C U10G C12G C13G	1.07
U7G U8C G9A U10G U11G	1.77
U7G U8C G9C U10C U11G	1.05
U7G U8C G9C U10C U11A	1.39
U7G U8C G9C U10C U11C	1.05
U7G U8C G9C U10G U11G C12U C13U	1.12
U7G U8C G9C U10G U11G C12U C13G	1.09
U7G U8C G9C U10G U11G C12U C13A	1.09
U7G U8C G9C U10A U11A C12G C13G	1.11
U7G U8C G9C U10A U11A C12G C13U	1.13
U7G U8C G9C U10A U11A C12G C13A	1.1
U7G U8C G9C U10A C13U	1.07
U7G U8C G9C U10A C13G	1.07
U7G U8C G9C U10A C13A	1.08
U7G U8C G9C U10C U11C C13U	0.999
U7G U8C G9C U10C U11C C13G	1.36
U7G U8C G9C U10C U11C C13A	1.04
